Experimental findings from patent US20140087991A1, “PEPTIDE PRODRUGS” (The Johns Hopkins University, priority 2006, published 2014) are described below.

Holding throughout (type): biochemical
The target in assay [1] is T1, FAP (Homo sapiens, UniProt Q12884).
T1 construct: the extracellular domain of FAP was cloned with a His-6 tag; made in house
T1 sequence (Q12884 26-760 limits assumed): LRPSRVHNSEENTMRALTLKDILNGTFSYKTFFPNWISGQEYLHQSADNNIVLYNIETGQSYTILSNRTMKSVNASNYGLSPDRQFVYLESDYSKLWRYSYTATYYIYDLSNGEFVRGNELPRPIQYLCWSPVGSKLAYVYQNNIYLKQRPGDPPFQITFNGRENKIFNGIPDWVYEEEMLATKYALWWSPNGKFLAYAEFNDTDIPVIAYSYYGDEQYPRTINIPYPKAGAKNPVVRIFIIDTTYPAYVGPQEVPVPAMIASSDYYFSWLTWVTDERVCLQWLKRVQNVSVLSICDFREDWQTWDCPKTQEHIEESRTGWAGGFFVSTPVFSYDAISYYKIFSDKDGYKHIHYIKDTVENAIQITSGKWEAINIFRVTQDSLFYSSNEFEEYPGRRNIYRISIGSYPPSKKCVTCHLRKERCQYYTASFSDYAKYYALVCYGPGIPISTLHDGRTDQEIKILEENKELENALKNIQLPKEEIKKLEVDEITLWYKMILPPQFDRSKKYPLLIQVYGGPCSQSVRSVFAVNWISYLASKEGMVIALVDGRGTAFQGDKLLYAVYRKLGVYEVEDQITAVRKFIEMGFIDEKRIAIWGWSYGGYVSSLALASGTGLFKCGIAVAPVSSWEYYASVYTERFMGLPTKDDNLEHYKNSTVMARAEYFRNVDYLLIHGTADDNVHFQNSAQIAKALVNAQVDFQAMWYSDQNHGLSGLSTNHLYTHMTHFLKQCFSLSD
Kind of assay: FAP gelatinase and collagenase assay with quenched (DQ) proteins. As for the experimental part:
Quenched gelatin and collagen conjugates were used to detect and confirm FAP's gelatinase and collagenase activity. DQ™ Gelatin from pig skin, DQ™ collagen, type IV from human placenta, DQ™ collagen, type I from bovine skin, all as fluorescent conjugates (Invitrogen, Rockville, Md.) were digested with FAP and digestion monitored on a fluorescence plate reader. Protein substrates were dissolved in reaction buffer (100 mM NaCl, 100 mM Tris, pH 7.8) to a final concentration of 100 μgs/ml. Trypsin digestion was used as a positive control. As a negative control the His tagged extra cellular domain of Prostate Specific Membrane Antigen (PSMA), which was similarly purified from S2 cells under the same conditions as FAP. Fluorescent quenched DQ™ Bovine Serum Albumin was used as a negative control for FAP protease activity.
Quenched forms of Gelatin and Collagen were used to confirm the gelatinase and collagenase activity of recombinant FAP. Quenching is achieved by labeling these proteins with the fluorophore FITC such that fluorescence signal from the intact protein is minimal due to is self-quenching by the fluorphore. Protein digestion releases FITC-labeled fragments that result in measurable increase in overall fluorescence signal from the reaction mixture. […] On a relative basis gelatin was digested ˜10-fold better by FAP than collagen I. MALDI analysis of digested fragments was performed to confirm hydrolysis.

Assay [2] deals with T1, FAP. Kind of assay: LC-MS/MS cleavage map of FAP digest of 100 kDa recombinant human gelatin. Particulars: 100 kDa gelatin digest; for Percentage: share of all occurrences. As to the method: (§1) Human collagen I (Becton Dickinson, Franklin Lakes, N.J.) and recombinant human gelatins of 100 KDa and 8.5 KDa (Fibrogen, San Francisco, Calif.) were dissolved in reaction buffer to a final concentration of 100-300 μg/ml. 0.5-1 μg of FAP was added per 100 μgs of protein substrate. Digestion was done for 4-6 hrs at 37° C. As a positive control trypsin digestion was used. As a negative control, protein solutions were incubated either with BSA or buffer only. Peptide fragments of a size <30 KDa were purified using 30 KDa Microcon spin filter (Millipore, Billerica, Mass.).
(§2) Peptides obtained from FAP/gelatin digests were dried using a speedvac (Eppendorf), resuspended in LC/MS loading buffer (3% ACN, 0.1% formic acid), and analyzed using nano-flow LC/MS/MS on an Agilent 1100 series nano-LC system (Agilent) coupled to an LCQ Duo ion trap mass spectrometer (ThermoFinnigan). Peptides were pre-concentrated on a 5 mm Zorbax C18 trap column (Agilent) and then eluted onto a 100×0.075 mm custom-packed Biobasic C18 (ThermoElectron) reversed phase capillary column connected to a laser-pulled electrospray ionization emitter tip (New Objective) at a flowrate of 300 nl/min Peptides were eluted the nanospray source of the LCQ (Proxeon, Denmark) using the following gradient: 0% B at 0 min, 5% B at 8 min, 45% B at 50 min, 90% B at 55 min, 90% B at 60 min (B=0.1% formic acid in acetonitrile) at a spray voltage of 2.5 kV. The LCQ was operated in data-dependent mode using the Xcalibur software (ThermoFinnigan) in which every MS scan (400-1800 m/z) was followed by MS/MS scans (400-1800 m/z) on the 3 most intense ions using an isolation window of ±1.5 Da. Ions selected for MS/MS fragmentation were dynamically excluded for 30 s.
(§3) MS/MS data were searched against a collagen FASTA database using the SEQUEST search algorithm built into the Bioworks Browser (ThermoFinnigan) allowing for the variable modification of Methionine oxidation. Peptides were initially filtered in a charge dependent manner using an XCorr filter of 1.5, 2, and 2.5 for singly, doubly, and triply charged peptides. All MS/MS spectra used to identify peptides were manually inspected for validation of y and b-ion series. To quantify the relative abundance of each identified peptide we compared the ion current for each of the observed peptide parent ions from the MS spectra. The contribution of each parent ion to the total ion current was extracted and integrated over the peptide elution peak.
To resolve each particular mass fragment a Liquid Chromatograpy (LC) and Tandem mass spectroscopy (MS-MS) [LC-MS-MS] method was developed. Using this method, peptide fragments from FAP digests of the 8.5 kDa and 100 kDa recombinant gelatin were time-resolved by nano reverse phase LC (FIGS. 12 and 14) and then sequenced using an ion trap mass spectrometer operating in MS/MS mode. Initial methodological issues were worked out using the 8.5 kDa fragment before analyzing the entire 100 kDa protein. MS/MS spectra were searched against the 8.5 kDa and 100 kDa gelatin sequences using the SEQUEST algorithm with no cleavage specificity. Most of the identified cleavage sites in both sized gelatins occurred after Proline. However, FAP cleavage sites in these gelatins were not restricted to Proline alone. FAP was also found to cleave after Ala (e.g. A/A, A/G, A/P, A/R), Asp (e.g. D/G, D/T), Gly (e.g. G/A, G/E, G/L, G/Q, G/P, G/V), Glu (i.e., E/P), Lys (i.e., K/A, K/G), Ser (e.g. S/P) and Val (e.g. V/G).
To identify the most preferentially cleaved sites, we relatively quantified the abundance of each of the identified peptides by integrating the ion current generated by each peptide throughout the chromatogram. After identification of a peptide from a MS/MS spectrum, we extracted the ion current for the parent mass of the ion from the total MS ion chromatogram using a 1.5 Da tolerance window, and then integrated under the peak (FIGS. 12 and 14). […]

The target of assay [3] is T1, FAP. Kind of assay: LC-MS/MS cleavage map of FAP digest of 8.5 kDa recombinant human gelatin. Particulars: 8.5 kDa gelatin digest; for Normalized Ion Current: peak with lowest ion current assigned 1.0. As to the method:
as §1, §2, §3
As Collagen I and Gelatin are currently the only known protein substrates for FAP, we needed to develop an alternative method to identify FAP-selective cleavage sites within these proteins. […] The masses of fragments <3 KDa were purified for MALDI spectra and again analyzed by FindPept tool. […]

Regarding Gelatin, the “digestion by FAP relative to collagen I” value on FAP [1] is on record as roughly 10 fold. Moreover, the “hydrolysis of FITC-quenched protein by FAP” value on FAP [1] (100 μgs/ml protein substrate) is “readily hydrolyzed”.
As to “P.AGKDGEAGAQGPPGP.A: FAP cleavage fragment of 100 kDa and 8.5 kDa recombinant human gelatin, MH+ 1308.62 (PAGKDGEAGAQGPPGPA)”, in the assay with FAP [2], the Occurences was 2 and the Percentage is on record as 0.95. For the same substance, in the assay with FAP [3], the “relative abundance of fragment by integrated ion current” value is recorded as “most abundantly identified fragment” and the “Normalized Ion Current” value was 234.8.
As to “P.AGQDGRPGPPGPPGARGQAG.V: FAP cleavage fragment of 100 kDa and 8.5 kDa recombinant human gelatin, MH+ 1799.89”, in the assay with FAP [2], the Occurences was determined as 1 and the Percentage is given as 0.48. The “Normalized Ion Current” value in the assay with FAP [3] is listed as 1.0.
As to “P.GPSGNAGPPGPP.G: FAP cleavage fragment, 100 kDa recombinant human gelatin”, in the assay with FAP [2], the Occurences is on record as 1 and the Percentage was found to be 0.48.
On to “P.IGPPGPAGAPGDKGESGP.S: FAP cleavage fragment, 100 kDa recombinant human gelatin”, for which, in the assay with FAP [2], the Occurences is reported as 6 and the Percentage was found to be 2.86.
On to “P.KGAAGEPGKAGERGVPGPPGAVGP.A: FAP cleavage fragment of 100 kDa and 8.5 kDa recombinant human gelatin, MH+ 2113.12”, for which, in the assay with FAP [2], the Occurences is reported as 5 and the Percentage is 2.38. For the same substance, in the assay with FAP [3], the “Normalized Ion Current” value stood at 46.8.
“P.KGAAGEPGKAGERGVPGPPGAVGPAGKDGEAGAQGPPGP.A: FAP cleavage fragment, 100 kDa recombinant human gelatin”: in the assay with FAP [2], the Occurences is given as 1 and the Percentage is listed as 0.48.
Turning to “P.PGAPGAPGAPGPVGPAGKSGDRGETGP.A: FAP cleavage fragment, 100 kDa recombinant human gelatin”, in the assay with FAP [2], the Occurences is 2 and the Percentage stood at 0.95.
Regarding “P.PGLAGPPGESGREGAPGAEGSPGRD.G: FAP cleavage fragment, 100 kDa recombinant human gelatin”, in the assay with FAP [2], the Occurences is 2 and the Percentage turned out to be 0.95.
On to “P.PGPAGAPGDKGESGP.S: FAP cleavage fragment, 100 kDa recombinant human gelatin”, for which, in the assay with FAP [2], the Occurences was 2 and the Percentage was 0.95.
In the case of “P.QGFQGPPGEPGEPGASGP.M: FAP cleavage fragment, 100 kDa recombinant human gelatin”, in the assay with FAP [2], the Occurences is given as 2 and the Percentage is 0.95.
On the same counts, the results for “P.QGVRGEPGPPGP.A: FAP cleavage fragment, 100 kDa recombinant human gelatin” are 3 and 1.43.
As to “P.RGPPGSAGAPGKDGLNGLPGP.I: FAP cleavage fragment, 100 kDa recombinant human gelatin”, in the assay with FAP [2], the Occurences turned out to be 14 and the Percentage worked out at 6.67.
As to “P.SGEPGKQGPSGASGERGPPGP.M: FAP cleavage fragment, 100 kDa recombinant human gelatin”, in the assay with FAP [2], the Occurences turned out to be 4 and the Percentage worked out at 1.90.
In the same order, the values of “P.SGNAGPPGPPGP.A: FAP cleavage fragment, 100 kDa recombinant human gelatin” are 14 and 6.67.
For “P.TGARGAPGDRGEPGPPGP.A: FAP cleavage fragment, 100 kDa recombinant human gelatin”, in the assay with FAP [2], the Occurences worked out at 13 and the Percentage stood at 6.19.
Turning to “P.VGPPGPPGPP.G: FAP cleavage fragment, 100 kDa recombinant human gelatin”, in the assay with FAP [2], the Occurences is 3 and the Percentage amounted to 1.43.
With “P.VGPPGPPGPPGPPGPP.: C-terminal FAP cleavage fragment, 100 kDa recombinant human gelatin (PVGPPGPPGPPGPPGPP)”, in the assay with FAP [2], the Occurences is listed as 19, the “relative abundance of fragment by integrated ion current” value is “most abundantly identified fragment” and the Percentage was 9.05.
Take “P.VGVQGPPGP.A: FAP cleavage fragment, 100 kDa recombinant human gelatin”: in the assay with FAP [2], the Occurences is 3 and the Percentage is 1.43.
For the substance “V.GPPGPPGPP.G: FAP cleavage fragment, 100 kDa recombinant human gelatin”, in the assay with FAP [2], the Occurences came out at 2 and the Percentage was 0.95.
